Results published in the supplement of paper PMC12042874.
± gives the uncertainty stated by the source.

Assay: amyloid nucleation score (Sup35N fusion, yeast selection) (log enrichment); library NNK1; higher = more nucleation; inactive = no reads after selection
Summary of the method: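 The nucleation score, computed with DiMSum, is the log enrichment of output over input reads, centred on the mode score of non-aggregating sequences. Sequences with under 100 input reads were dropped. Reads were generated by Illumina sequencing of plasmid inserts from psi-negative yeast with Sup35N fused to peptides of 20 random codons, induced with 100 μM copper sulfate for 24 hours and grown 7 days at 30°C on medium lacking adenine and uracil.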

| Substance | amyloid nucleation score |
| --- | --- |
| TRQRKDGYADRMQYNSPLRR | 0.342 ± 0.6 |
| TRRYWV | -0.679 ± 0.32 |
| TRTNLVAPCIMEVLSNVHRY | inactive |
| TRTPAWGWFPQST | -0.105 ± 0.81 |
| TRTRLEHNSVRKFWEL | inactive |
| TRTTKMAH | 1.24 ± 0.45 |
| TRVFSCDACRKN | inactive |
| TSASVGLVMWTTWMRNQG | 3.75 ± 0.087 |
| TSGLENVSIVNGLPGLDSLV | 0.11 ± 0.99 |
| TSGLSGSESKESTDKCCIEC | 0.713 ± 0.92 |
| TSGSRVRRRWGMLVCRNRSR | -1.25 ± 2.4 |
| TSGWRYGYSSYHYRTLNGFV | -0.35 ± 0.47 |
| TSHPFLLQFMDDPFELSLAQ | -0.714 ± 0.48 |
| TSHPGRCRGYASRASSEVFR | -0.038 ± 0.43 |
| TSHSGIEFRLEFARSSPPSQ | -0.161 ± 0.66 |
| TSKGCQ | inactive |
| TSMVNI | 0.084 ± 0.88 |
| TSMWTYY | 0.298 ± 0.33 |
| TSNIRVLGHAMVNWVCWGRD | 3.18 ± 0.18 |
| TSPDYPRRYVQMSRR | 0.507 ± 0.52 |
| TSPGRYFCRLHVLHSGM | -0.468 ± 1.9 |
| TSQENTDINGPCKLTSVLQR | 0.436 ± 0.68 |
| TSRGGLFYSGVLICAGGIRM | -0.032 ± 0.54 |
| TSTVG | inactive |
| TSVSKLQHWIYFTFY | -0.834 ± 1.4 |

| Substance | amyloid nucleation score |
| --- | --- |
| TSYTNAVFESNFA | -0.426 ± 0.3 |
| TTFFYYSEGKIR | -0.657 ± 0.51 |
| TTPGALSSRTMSMPDVLGIE | 1.37 ± 0.5 |
| TTTCMRYGLIVC | 1.7 ± 0.52 |
| TVASRFEFYTKDWAYRNGRL | 1.76 ± 0.33 |
| TVEGSRYFRSSLYHSARSHW | 1.14 ± 0.55 |
| TVFDSLC | 0.372 ± 1.2 |
| TVFFCNWVEPYDFNICR | 6.763 ± 0.059 |
| TVFFPFLTNSRGDRLRDCWM | -0.65 ± 1.1 |
| TVIRESIPKFWFYTLGMLKV | -0.6 ± 0.35 |
| TVIRSVIIPITPPIIR | 1.57 ± 0.56 |
| TVITFRLAT | 1.69 ± 0.26 |
| TVKHC | 3.17 ± 0.14 |
| TVLVT | -0.461 ± 0.48 |
| TVLYPGPGAVS | 0.155 ± 0.73 |
| TVMFCRQWVFNCVFFIDIVK | 1.31 ± 0.1 |
| TVNRMIFFMRLLYTRVKL | -1.68 ± 2.7 |
| TVPIRTTTLSNGAFVWLI | inactive |
| TVSIGDVTRFVMAVASTTF | 0.18 ± 1.1 |
| TWGSGY | -0.797 ± 0.93 |
| TWNKCKVADSLFMTRIIMVL | 0.305 ± 0.41 |
| TWQNRTSLIEVTSYMFHGWV | 0.294 ± 0.59 |
| TYDQTRMTVHRSSSIERART | 0.173 ± 1.4 |
| TYFFKLNP | -1.07 ± 1.4 |
| TYFSDLVRRRRCKAGNVWFL | 1.58 ± 0.74 |

| Substance | amyloid nucleation score |
| --- | --- |
| TYFSISQLLGFFQSVGPYVF | 0.108 ± 0.56 |
| TYNRGMGGRISVFCLFTGVM | 0.078 ± 0.21 |
| TYRDKNNVRFKRFLGKRTAC | -1.22 ± 0.99 |
| TYRLH | -0.57 ± 0.55 |
| TYSKSVCWAHHHSYTGVCLT | 0.127 ± 0.52 |
| TYSSARDSS | -0.209 ± 0.63 |
| TYYGVSPDTASNAACLYPRH | -0.746 ± 1.9 |
| TYYKQYVLMYRALNFAGSWS | 1.21 ± 0.79 |
| VAAFEIMHLLISCDNRCRFQ | 0.337 ± 0.38 |
| VAEEYSN | inactive |
| VAFVLLTQVGGWRLGIWRRK | -1.09 ± 0.66 |
| VAGFPVEDRLRQISSWAVSG | -1.07 ± 0.62 |
| VAHSLYLNIYGFQLMS | 7.454 ± 0.06 |
| VATRYWSRLCTMFVHSTRTT | inactive |
| VCFEVWSGHFSASLTM | 0.663 ± 0.44 |
| VCGEYEITVKIISVSRSNKC | 1.45 ± 0.26 |
| VCIVPIVYPLFKFSVSNDPT | -0.202 ± 0.57 |
| VCKWNSSIFLYNRPSVSAAV | 0.123 ± 0.4 |
| VCLANGHWATHMHYIFHYLS | -0.915 ± 0.73 |
| VCNFLFAFSFW | 6.746 ± 0.064 |
| VCNQWGDHA | -1.08 ± 1.7 |
| VCRRVHGSMP | -0.236 ± 1.2 |
| VCSCRFLYI | -1.53 ± 1.6 |
| VCTCFSSWAWEVNF | 3.28 ± 0.083 |
| VCYGVLPFEEWKMSFSACVT | 0.369 ± 0.37 |

| Substance | amyloid nucleation score |
| --- | --- |
| VDCLFLKHHFFLTVSSMVRN | 1.43 ± 0.84 |
| VDNSCFRGT | -0.391 ± 0.66 |
| VDRVGYIP | -0.506 ± 0.47 |
| VDYMERGYYAYIMVGICI | inactive |
| VECLAAVNYGEVHDPGVMDR | 0.417 ± 0.71 |
| VEFGSHVFYLKGRSDKAKYL | -0.283 ± 0.45 |
| VEGLERLLVLWHWPFAWNYF | -0.735 ± 1.4 |
| VELSYCMQRMSARIQCGRKP | 2.09 ± 0.43 |
| VERGY | 1.03 ± 0.61 |
| VETIRQINVHVSGVDIHFWD | 6.872 ± 0.045 |
| VFALMRISSNSMSKCQFVCD | -0.187 ± 0.39 |
| VFCYQT | 0.055 ± 1.1 |
| VFFGLTICFFVAHHCQERGS | 2.54 ± 0.21 |
| VFFLGMVCAVWATFDVSYNG | 1.31 ± 0.35 |
| VFFSKI | 1.08 ± 0.53 |
| VFFYSRT | 3.02 ± 0.08 |
| VFGSKFGLKLITDFINILLR | inactive |
| VFIDGLTSYTEIMRL | inactive |
| VFIVELNFMLRN | 4.69 ± 0.055 |
| VFKESGSRGFVMYTGILSCQ | 0.507 ± 0.68 |
| VFLVTIWRSIMVLWNTVW | -0.284 ± 0.47 |
| VFLVYLY | -0.608 ± 0.28 |
| VFMMSDTC | inactive |
| VFNTGYRVSRILDLGYKFNM | inactive |
| VFSFYNRNLLILNISLYGYC | 5.89 ± 0.085 |

| Substance | amyloid nucleation score |
| --- | --- |
| VFSKLDTLFTVSMTLRPMWP | 0.566 ± 0.79 |
| VFSSVGGETSYRCMGTASGT | -0.231 ± 0.46 |
| VFVVNTTESWHNLALFWSSR | 0.382 ± 0.45 |
| VFWGL | 0.072 ± 0.47 |
| VFYVCFNAKLPLLGYFDLKV | inactive |
| VGGGSRWDIRDNSNQSIIPM | -0.338 ± 0.34 |
| VGGNPN | 1.19 ± 0.98 |
| VGIPRYGYEPVVHALVKPFE | 0.959 ± 0.79 |
| VGIWLGTGTWGCKGL | 0.485 ± 0.66 |
| VGRFLSYGRWLA | -0.393 ± 0.42 |
| VGRNQNKTDEG | 0.564 ± 0.95 |
| VGSSLDMPAPKRVGSEYCSV | 0.279 ± 0.66 |
| VGTTDG | inactive |
| VGVVGDYDLQIS | -1.2 ± 2.4 |
| VGWTALVQALGNGTQHGVVT | 0.394 ± 0.78 |
| VGYGASMYYYFFWHKFFLVF | 0.037 ± 1 |
| VGYHFMYSMSAFVASWRSWG | -0.482 ± 0.88 |
| VGYSPVVFSLNNICGSPFLM | 5.277 ± 0.047 |
| VHDENYDRFQGFVLDMLQAH | 0.641 ± 0.37 |
| VHEMNSRTDFYKIKKSGTLV | 0.158 ± 0.29 |
| VHSGNMMSNFGWAERLHKKA | -0.39 ± 1.2 |
| VHTWYHCLSAEMSVMSILDL | -0.39 ± 1.7 |
| VHYWLVNSSTKRGRPFASAF | -0.231 ± 0.36 |
| VIDRTEGTYCREITTFHYYN | -0.378 ± 0.62 |
| VIHVSTYDSGVLPLKEDGTF | 0.151 ± 0.4 |

| Substance | amyloid nucleation score |
| --- | --- |
| VILVFRVDNCTERKAN | -0.097 ± 0.5 |
| VIMLVNDAFVGI | -0.543 ± 0.26 |
| VISHEPAVFPTSRS | 0.121 ± 0.45 |
| VITFITSL | 3.85 ± 0.064 |
| VITGYVCMDSVQFIWYVVWV | -0.638 ± 1 |
| VITVRLFILW | -0.213 ± 0.43 |
| VIVFCCSEDNRRGQLKV | -1.49 ± 0.84 |
| VIYSSIHKLSDGDRVENPRS | -0.933 ± 0.96 |
| VKDASFRFAQQEGMRLRMQS | 0.503 ± 0.38 |
| VKDATSHASGDFGRPGHWDK | -0.042 ± 0.55 |
| VKLTNLGFRGKFDVVDCHWI | -0.546 ± 0.34 |
| VKMFMD | 0.644 ± 0.59 |
| VKMYRAFIQGYGSLDRRQFP | 0.45 ± 0.42 |
| VKRGHNGGSAITISLDLYLF | 5.11 ± 0.069 |
| VKSADIIVL | -0.357 ± 0.34 |
| VKSSFNMSARVVLDENIHER | -0.067 ± 0.69 |
| VKVCMGLGYSGLMLGGLWDS | -0.491 ± 1.9 |
| VKYLRYFSSLDLLLIVLQAI | 0.31 ± 1.2 |
| VKYTYDS | -0.238 ± 0.65 |
| VLARNRWRRKWRHTRGWVRG | 0.157 ± 1.4 |
| VLCNLTVS | -0.907 ± 1.8 |
| VLESLAYFPGFNEWCGDMMS | 1.43 ± 0.42 |
| VLFGWGCGNTFSRPSNRGQR | 0.97 ± 0.37 |
| VLFIFRSRFNVE | 3.47 ± 0.11 |
| VLGERYCPSNVLWLHLCGGE | 0.315 ± 0.28 |

| Substance | amyloid nucleation score |
| --- | --- |
| VLGMPSLRILYITCCSDMVC | 6.37 ± 0.046 |
| VLHEGCIMFKKLLLKALCRR | -0.128 ± 0.45 |
| VLLGSCWVFKSQKGRGPSSC | -0.51 ± 0.69 |
| VLLQELLSYITIGCLELGFG | 0.11 ± 0.3 |
| VLMITGVCCSHNMLVLADKR | 6.609 ± 0.057 |
| VLMLCCMGSTRVCMTYMPDN | 6.885 ± 0.064 |
| VLMRSEMESRFNEGRSTQGC | 0.361 ± 0.3 |
| VLPFSLFAYAACFVLTLTYV | 0.274 ± 1.1 |
| VLRKTFGCFETMV | 3.92 ± 0.073 |
| VLSAYSFYVSIWYNFSFIYG | 0.689 ± 0.57 |
| VLSCLPHAINFFYPSRSK | 1.05 ± 0.35 |
| VLSVNAV | -0.482 ± 0.51 |
| VLTCKE | -1.55 ± 1.2 |
| VLTEGYLFTSLIDL | -0.22 ± 0.43 |
| VLYFYFFIQIRVGIQYSVKN | 2.41 ± 0.41 |
| VLYGADDVLVRVSTCVYMGG | -0.136 ± 0.25 |
| VLYQRVRTGTTYGRARRLDV | -0.622 ± 1.7 |
| VMCQCYSGGM | 1.31 ± 0.4 |
| VMCVTIMSVFWNGLRNVEAM | 0.977 ± 0.18 |
| VMDQLIV | inactive |
| VMKGSRHVRDKRALYYDILR | -0.308 ± 0.59 |
| VMLMCYPLTRPRCGTERNMF | 0.091 ± 0.49 |
| VNGYFAASDECFWCRSAGPN | 0.555 ± 0.34 |
| VNHIWWEFQGVSAYSNFRRD | -0.417 ± 1.5 |
